In IntAct's records for PubMed 23911326:

B1: Metabotropic glutamate receptor 5 (Mus musculus), Q3UVX5 (parent)
chain: MVLLLILSVLLLKEDVRGSAQSSERRVVAHMPGDIIIGALFSVHHQPTVDKVHERKCGAVREQYGIQRVEAMLHTLERINSDPTLLPNITLGCEIRDSCWHSAVALEQSIEFIRDSLISSEEEEGLVRCVDGSSSFRSKKPIVGVIGPGSSSVAIQVQNLLQLFNIPQIAYSATSMDLSDKTLFKYFMRVVPSDAQQARAMVDIVKRYNWTYVSAVHTEGNYGESGMEAFKDMSAKEGICIAHSYKIYSNAGEQSFDKLLKKLRSHLPKARVVACFCEGMTVRGLLMAMRRLGLAGEFLLLGSDGWADRYDVTDGYQREAVGGITIKLQSPDVKWFDDYYLKLRPETNLRNPWFQEFWQHRFQCRLEGFAQENSKYNKTCNSSLTLRTHHVQDSKMGFVINAIYSMAYGLHNMQMSLCPGYAGLCDAMKPIDGRKLLDSLMKTNFTGVSGDMILFDENGDSPGRYEIMNFKEMGKDYFDYINVGSWDNGELKMDDDEVWSKKNNIIRSVCSEPCEKGQIKVIRKGEVSCCWTCTPCKENEYVFDEYTCKACQLGSWPTDDLTGCDLIPVQYLRWGDPEPIAAVVFACLGLLATLFVTVIFIIYRDTPVVKSSSRELCYIILAGICLGYLCTFCLIAKPKQIYCYLQRIGIGLSPAMSYSALVTKTNRIARILAGSKKKICTKKPRFMSACAQLVIAFILICIQLGIIVALFIMEPPDIMHDYPSIREVYLICNTTNLGVVTPLGYNGLLILSCTFYAFKTRNVPANFNEAKYIAFTMYTTCIIWLAFVPIYFGSNYKIITMCFSVSLSATVALGCMFVPKVYIILAKPERNVRSAFTTSTVVRMHVGDGKSSSAASRSSSLVNLWKRRGSSGETLRYKDRRLAQHKSEIECFTPKGSMGNGGRATMSSSNGKSVTWAQNEKSTRGQHLWQRLSVHINKKENPNQTAVIKPFPKSTESRGQGAGAGGGSGPGAAGAGSAGCTATGGPEPPDAGPKALYDVAEAEERFPAAARPRSPSPISTLSHLAGSAGRTDDDAPSLHSETAARSSSSQGSLMEQISSVVTRFTANITELNSMMLSTAAAPGPPGTPICSSYLIPKEIQLPTTMTTFAEIQPLPAIEVTGGAQPATGPSPAQETPAGAEAAPGKPDLEELVALTPPSPFRDSVDSGSTTPNSPVSESALCIPSSPKYDTLIIRDYTQSSSSL
partner: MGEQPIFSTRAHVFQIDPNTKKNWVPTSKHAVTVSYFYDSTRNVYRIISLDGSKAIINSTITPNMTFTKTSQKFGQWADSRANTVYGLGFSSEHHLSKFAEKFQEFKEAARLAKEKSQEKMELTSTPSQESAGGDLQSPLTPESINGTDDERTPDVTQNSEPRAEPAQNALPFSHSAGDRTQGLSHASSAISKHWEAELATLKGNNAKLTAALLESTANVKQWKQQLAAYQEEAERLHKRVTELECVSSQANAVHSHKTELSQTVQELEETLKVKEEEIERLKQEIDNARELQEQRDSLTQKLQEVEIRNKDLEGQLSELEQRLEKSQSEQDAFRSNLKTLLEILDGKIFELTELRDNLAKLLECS

Variants of: B1
Conditions: with Homer1, Q9Z214-1

Variant	effect of a mutation on the interaction
F1160R	disrupting interaction strength
